Measurements: publication PMC5018210 (Nature, 2016)

Target: the molecule itself
Assay: SEC-MALS

B1: MHV S ectodomain trimer (murine hepatitis virus spike glycoprotein ectodomain, R717S, fused to a GCN4 trimerization motif) (domain or fragment)
chain: YIGDFRCIQLVNSNGANVSAPSISTETVEVSQGLGTYYVLDRVYLNATLLLTGYYPVDGSKFRNLALRGTNSVSLSWFQPPYLNQFNDGIFAKVQNLKTSTPSGATAYFPTIVIGSLFGYTSYTVVIEPYNGVIMASVCQYTICQLPYTDCKPNTNGNKLIGFWHTDVKPPICVLKRNFTLNVNADAFYFHFYQHGGTFYAYYADKPSATTFLFSVYIGDILTQYYVLPFICNPTAGSTFAPRYWVTPLVKRQYLFNFNQKGVITSAVDCASSYTSEIKCKTQSMLPSTGVYELSGYTVQPVGVVYRRVANLPACNIEEWLTARSVPSPLNWERKTFQNCNFNLSSLLRYVQAESLFCNNIDASKVYGRCFGSISVDKFAVPRSRQVDLQLGNSGFLQTANYKIDTAATSCQLHYTLPKNNVTINNHNPSSWNRRYGFNDAGVFGKNQHDVVYAQQCFTVRSSYCPCAQPDIVSPCTTQTKPKSAFVNVGDHCEGLGVLEDNCGNADPHKGCICANNSFIGWSHDTCLVNDRCQIFANILLNGINSGTTCSTDLQLPNTEVVTGICVKYDLYGITGQGVFKEVKADYYNSWQTLLYDVNGNLNGFRDLTTNKTYTIRSCYSGRVSAAFHKDAPEPALLYRNINCSYVFSNNISREENPLNYFDSYLGCVVNADNRTDEALPNCDLRMGAGLCVDYSKSRRAHSSVSTGYRLTTFEPYTPMLVNDSVQSVDGLYEMQIPTNFTIGHHEEFIQTRSPKVTIDCAAFVCGDNTACRQQLVEYGSFCVNVNAILNEVNNLLDNMQLQVASALMQGVTISSRLPDGISGPIDDINFSPLLGCIGSTCAEDGNGPSAIRGRSAIEDLLFDKVKLSDVGFVEAYNNCTGGQEVRDLLCVQSFNGIKVLPPVLSESQISGYTTGATAAAMFPPWSAAAGVPFSLSVQYRINGLGVTMNVLSENQKMIASAFNNALGAIQDGFDATNSALGKIQSVVNANAEALNNLLNQLSNRFGAISASLQEILTRLEAVEAKAQIDRLINGRLTALNAYISKQLSDSTLIKVSAAQAIEKVNECVKSQTTRINFCGNGNHILSLVQNAPYGLYFIHFSYVPISFTTANVSPGLCISGDRGLAPKAGYFVQDDGEWKFTGSSYYYPEPITDKNSVIMSSCAVNYTKAPEVFLNTSIPNPPDFKEELDKWFKNQTSIAPDLSLDFEKLNVTLLDLIKRMKQIEDKIEEIESKQKKIENEIARIKKIKLVPRGSLE
stoichiometry N: 3
